Test: LC chromatograms (LC-MS) of ligands before and after incubation in 0.1 M peracetic acid
Format: physicochemical
Conditions: 1 h incubation in 0.1 M peracetic acid, UV 280 nm
Protocol: The kinetics was measured by Surface Plasmon Resonance on a Biacore™ instrument. […] 1 ml rPrL and KappaSelect ligand were diluted to 10 mg/ml. • 3. Reference sample (0 h) was withdrawn, 100 μl and buffer exchanged to 50 mM Ammonium Bicarbonate. • 4. 10% 1 M PAA was added and the incubations started. • 5. Samples were withdrawn after 1, 2, 4, 8, 16 and 24 h, 100 μl and buffer exchanged to 50 mM Ammonium Bicarbonate to stop the oxidation reaction. • 6. The concentrations were measured in all samples by measuring the UV absorbance at 276 nm. • 7. The samples were then analyzed on LC-MS and Biacore.

B1: rPrL: recombinant Protein L (protein)
chain: AVENKEETPETPETDSEEEVTIKANLIFANGSTQTAEFKGTFEKATSEAYAYADTLKKDNGEYTVDVADKGYTLNIKFAGKEKTPEEPKEEVTIKANLIYADGKTQTAEFKGTFEEATAEAYRYADALKKDNGEYTVDVADKGYTLNIKFAGKEKTPEEPKEEVTIKANLIYADGKTQTAEFKGTFEEATAEAYRYADLLAKENGKYTVDVADKGYTLNIKFAGKEKTPEEPKEEVTIKANLIYADGKTQTAEFKGTFAEATAEAYRYADLLAKENGKYTADLEDGGYTINIRFAGKKVDEKPEE
- LC chromatograms before and after SIP (degradation): no signs of degradation

— patent publication US20240226357A1, “Sanitization Method for Affinity Chromatography Matrices” (priority 2015, published 2024)
